In the supplement of paper PMC10567573:

B1: TOR1AIP2 (parent)
chain: YTSSQKVSPIQIDGAGRTWQDSDT

Variants of: B1
Test: protein stability index of a GFP-peptide fusion (GPS, HEK-293T) (PSI 1-6); higher = more stable
Conditions: c terminus: a fixed tail appended
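Also: lentivirally expressed fusions sorted by FACS into six bins by GFP to DsRed ratio, PSI derived from sequencing read proportions per bin multiplied by bin number.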

Protein stability index, by site and new letter:
R17: G 3.63, E 4.4, W 2.32, Q 3.79, V 3.64, N 3.02, L 3.21, A 3.66, I 3.59, Y 3.02, K 3.54, D 4.16, S 3.96, P 4.25, T 3.6, C 3.66, M 2.18, H 2.24, F 2.33
I12: L 3.29, D 4.12, S 3.08, T 3.65, A 3.68, H 4.21, W 2.55, F 3.24, Y 3.19, N 3.65, K 3.76, M 3.5, V 2.97, R 3.63, C 2.7, Q 4.03, P 3.99, G 4.59, E 5
Q20: F 2.62, L 2.58, T 3.03, D 3.79, K 3.16, A 3.43, E 4.31, G 3.08, N 4.09, M 2.75, I 2.42, P 2.69, R 2.62, C 3.34, S 3.69, H 2.71
A15: W 1.67, E 3.52, D 3.85, S 2.95, T 3.36, L 2.93, F 2.45, N 3.71, R 2.56, Q 3.35, G 3.04, I 3.25, K 2.73, H 2.6, C 3.03, V 2.82, Y 2.91, P 2.99
W19: E 4.86, F 3.92, G 3.74, V 4.56, S 4.76, L 4.11, I 3.96, P 4.67, N 4.04, D 4.39, R 4.13, T 4.35, K 4.56, M 4.34, Q 4.57, H 4.09, C 3.88, A 3.93, Y 4.08
T18: Y 2.74, V 3.29, W 2.3, S 2.87, G 3.47, R 3.43, C 2.9, M 2.42, L 3, I 2.63, E 3.83, Q 3.8, A 3.01, D 4.01, K 3.33, F 1.33, P 3.38, N 3.41
G16: N 1.93, M 3.65, R 3.19, F 2.3, H 3.41, V 3, E 3.32, S 2.9, P 3.24, K 3.33, T 2.7, W 1.61, Y 2.89, A 3.07, C 2.99, L 3.07, D 4.01, Q 2.97, I 2.54
Q11: Y 2.2, W 5.21
D13: R 2.36, K 2.77, N 3.15, H 2.64, I 2.35, E 3.33, T 2.87, V 2.39, W 1.54, C 2.79, Y 1.96, Q 3.27, M 2.21, L 2.29, F 1.67, A 3.2, P 2.87, S 2.86, G 3.07
G14: D 3.46, Y 2.78, R 1.95, I 2.5, A 3.37, V 2.78, S 3.51, W 3.16, F 2.83, T 3.38, L 2.99, H 3, N 3.5, M 2.77, P 3.28, Q 3.57, E 3.94, C 4.45
